The source of these data is the DeepSol protein solubility set.

The nature of this data set: soluble on expression in E. coli; label from the status in PepcDB or PDB records.
As to “MTDNSNIRVVVGMSGGVDSSVTALLLKEQGYDVIGVFMKNWDDTDEFGVCTATEDYKDVAAVADQIGIPYYSVNFEKEYWDRVFEYFLAEYRAGRTPNPDVMCNKEIKFKAFLDYAMTLGADYVATGHYAQVTRDENGIVHMLRGADNNKDQTYFLSQLSQEQLQKTLFPLGHLQKPEVRRIAEEAGLATAKKKDSTGICFIGEKNFKDFLGQYLPAQPGRMMTVDGRDMGEHAGLMYYTIGQRGGLGIGGQHGGDNKPWFVVGKDLSKNILYVGQGFYHDSLMSTSLTASEIHFTRDMPNEFKLECTAKFRYRQPDSKVTVYVKGNQARVVFDDLQRAITPGQAVVFYNEQECLGGGMIDQAYRDDKICQYIMAGDPLEHHHHHH”, the “soluble on expression in E. coli” value is listed as “not soluble”.

As for “MKRESVLFQAARKHHLNLLFPLFRANTSASYPVSRFISRPITVLSKGFAKGFFCIKKETVDKIQQFFFDKWAIEERRYHQLLSILLPGLKNGNLASVEQYLGAKRIEAYAAVPYVAGRWELDDASLPQGAVVVLTCEGVLYSWETYRLERYISAAMANDRISGVVLFVNGPGGMITRVDVLEKLIRQSPKPIVAYITGVCASAHFWFVSACARRFVSSPMDEIGSCGVVYTFQSFKEYYAQMGIEIEDIYPDSADLKNRAYRDKEEKQDDTLIKENLSFYHHLFAQTIARNLGVKYDAQDPLFRGQTFFADTALAKGYVDAYGSLEDAILWVSAQKTVKRANKMILEHHHHHH”, the “soluble on expression in E. coli” value is reported as “not soluble”. The entry for “MEKVNEILSQLTLEEKVKLVVGVGLPGLFGNPHSRVAGAAGETHPVPRVGLPAFVLADGPAGLRINPTRENDENTYYTTAFPVEIMLASTWNRELLEEVGKAMGEEVREYGVDVLLAPAMNIHRNPLCGRNFEYYSEDPVLSGEMASSFVKGVQSQGVGACIKHFVANNQETNRMVVDTIVSERALREIYLRGFEIAVKKSKPWSVMSAYNKLNGKYCSQNEWLLKKVLREEWGFEGFVMSDWYAGDNPVEQLKAGNDLIMPGKAYQVNTERRDEIEEIMEALKEGKLSEEVLDECVRNILKVLVNAPSFKNYRYSNKPDLEKHAKVAYEAGAEGVVLLRNEEALPLSENSKIALFGTGQIETIKGGTGSGDTHPRYAISILEGIKERGLNFDEELAKTYEDYIKKMRETEEYKPRRDSWGTIIKPKLPENFLSEKEIHKLAKKNDVAVIVISRISGEGYDRKPVKGDFYLSDDETDLIKTVSREFHEQGKKVIVLLNIGSPVEVVSWRDLVDGILLVWQAGQETGRIVADVLTGRINPSGKLPTTFPRDYSDVPSWTFPGEPKDNPQKVVYEEDIYVGYRYYDTFGVEPAYEFGYGLSYTTFEYSDLNVSFDGETLRVQYRIENTGGRAGKEVSQVYIKAPKGKIDKPFQELKAFHKTRLLNPGESEEVVLEIPVRDLASFNGEEWVVEAGEYEVRVGASSRNIKLKGTFSVGEERRFKP” is “soluble”; for “SLNSPIATVEVFTLTQPRKVPYLGALREGEVVNPNGYIVRKGNRTVYPTFDRSVLVRMTTEAGTVGWGETYGIVAPGAVAALINDLLAGFVIGRDASDPSAVYDDLYDMMRVRGYTGGFYVDALAALDIALWDIAGQEAGKSIRDLLGGGVDSFPAYVSGLPERTLKARGELAKYWQDRGFNAFKFATPVADDGPAAEIANLRQVLGPQAKIAADMHWNQTPERALELIAEMQPFDPWFAEAPVWTEDIAGLEKVSKNTDVPIAVGEEWRTHWDMRARIERCRIAIVQPEMGHKGITNFIRIGALAAEHGIDVIPHATVGAGIFLAASLQASSTLSMLKGHEFQHSIFEPNRRLLDGDMDCREGRYHLPSGPGLGVRPSEAALGLIERI” it is “soluble”; for “MGSDKIHHHHHHMRKIPPLRALQVFEAAARLQHFSRAAQELCITQSAVSHQVRLLEEHFALPLFRREGRSLRLTDKGEQLFQETARIFNELGELNLRLLGEKPEALRLAVYSSFAVKWLIPRLSGFRRLHPGIQVRLDMITEDPVLSHSSADMFITGQQDQKGYWQQLLHAERLIPVCSPELISSSDKLDLDWLSTQQLLTVDEGPLGLDWQRWFEHHRVAQPEEEQQQLFSHVLMAIEAAIAGQGVALASDFMVLDDIAKQRLVALPFAGIDTGFEFNFLCKQRRLQEPAIAAFVHWLTQQH” it is “not soluble”. With “MIDMVVLTKEKIIEIIEEKTGMSREKIEEEIRRIMEEDPHLSEQGAAALLAERLGIDLIEREETSLMKISDLYPGMDPREVNIIGRVLKKYPVREYTKKDGSIGRVASLVIYDDSGRARVVLWDGKVAEYYNKIEVGDVIKVLDAQVRESLSGLPELHINFRARIILNPEDPRVDSIPPLEEVRIATYTRKKIGDIEPGDRFIEIRGTIAKVYRVLTYDACPECKKKVDYDPGTGVWICPEHGEVEPIKMTILDFGLDDGTGYIRVTLFGDDAEELLGVSSEEIAEKIKELENSGLTTKEAARKLAEEEFYKIIGKEIVVRGNVIEDRFLGLILRASSWEEVDYRKEIENIKEELEKLGVMLEHHHHHH” the entry was “not soluble”; with “VDNARIDLRSKYYVKPKADHPWLTRRTQSHQQVKPPKLPKKKPDPDKKD”, “soluble”.

For “MSLALSRIDGQDELFVGGLWALRRSDSLTDRRITHVLSLVPFDISSLKNFKDEPWIDYGKDFRHQLIDIDDVEDSDLLIELPKAVRFIEEGLGANYMEHADDDGGVSLEKDVDVVEKKRKKKGGVFVHCAVGKSRSVSAVIAYLLRRYPSRFDPNITPTAISDPSQSTGSETSAEKRSRKETAQEAVHAALTYVRRTRPMAEPNEGFMEQLALWWEMEEGHHHHHH”, the “soluble on expression in E. coli” value is “not soluble”. With “MAHHHHHHMDALIGQLENVEPDNILKSAEEFRNDKSDVKVNLSIGVCCDENGQLHIFKSVLEAEKLVQQRYKEKPYMLSNGTKQFSLLTQKLIFGENSKYLKEKKICTVQAIGGTGAICIALQLFKMLHIREICVTNKPYVNHVNMITSNGIKVKYISFFEEKLVNINYDAFLNDLRKLEDGSVLLLQVSCYNPCSTNIEEIYFDEIANIVWKKKHVIVFDIAYQGFGSSNMNDDVSLVKKFEERGISFVVCQSFSKNMSLYGERAGALHIVCKSKEERKIVANNLRVITRKFYSSPTIHTNRIVCQLLEDEKLKSEWISDLRELSERVHKNRVLFFEKMEFYQKKFDLHYDWSVYKKQRGIFSFVPMFSAIYRKLKEHHVYIIDNGRINVSGITARNVDYVAEKVCLSLAEVKRCG” the entry was “not soluble”; with “MGSDKIHHHHHHMAEFTHLVNERRSASNFLSGHPITKEDLNEMFELVALAPSAFNLQHTKYVTVLDQDVKEKLKQAANGQYKVVSSSAVLLVLGDKQAYQQAADIYEGLKVLGILNKQEYDHMVQDTVSFYENRGEQFKRDEAIRNASLSAMMFMLSAAAAGWDTCPMIGFDAEAVKRILNIDDQFEVVMMITIGKEKTESRRPRGYRKPVNEFVEYM”, “soluble”. The entry for “KDETVGVGVLSEPHARLLEIAKEEVKKQHIELRIVEFTNYVALNEAVMRGDILMNFFQHVPHMQQFNQEHNGDLVSVGNVHVEPLALYSRTYRHVSDFPAGAVIAIPNDSSNEARALRLLEAAGFIRMRAGSGLFATVEDVQQNVRNVVLQEVESALLPRVFDQVDGAVINGNYAIMAGLSARRDGLAVEPDASAYANVLVVKRGNEADARVQAVLRALCGGRVRTYLKERYKGGEVAPAL” is “soluble”; for “STEDLLTYTLDEAERLTGSTLGFFDLISDDQSIMRSACSSNAKKDNCGHARHPIVINFKAPADVLQKKRAIIHNDHATLRHCNSKSVSHKEAIRELIVPVIRNGKVMAILEVGNKPANYDQNDIQLLNELSGVAWDIIARKHAEDSAQKTMK” it is “not soluble”.

For “MTSGKIHNPLNRQHSELRSKNVSLSNGDPFTIALFGVDSNAQRKSENDGERSDTIMLLSINPKKQTTEIVSVPRDTQAEIVGKGTTEKINHAYAYGGPTMAVKSLEKLMNVPIDHYATVDMDGLHDMIDALGGVNVTSNDTFTTKGTNFVKGQSTHVDGDTAMAFIRSRKEEGAGGDFGRQERQQLILQAMANKMTSTSALTHFPSLINQIQKNVKTDLTLNDMNDIRKNYKNANTTVNRHQLEGQGGIQDDGLWYFIPNDDSKQSATEILNNNLQNLEHHHHHH”, the “soluble on expression in E. coli” value was “soluble”. The entry for “MHHHHHHSSGLVPRGSGMKETAAAKFERQHMDSPDLGTDDDDKAMAGTPSKPAEPIGPVFTKLKPWQIPKRDWFDKDFLFGASTSAYQIEGAWNEDGKGPSTWDHFCHTYPERISDMTNGDVAANSYHLYEEDVKALKDMGMKVYRFSISWSRILPDGTGKVNQAGIDYYNKLINSLIDNDIVPYVTIWHWDTPQALEDKYGGFLNRQIVDDYKQFAEVCFKNFGDRVKNWFTFNEPHTYCCFSYGEGIHAPGRCSPGMDCAVPEGDSLREPYTAGHHILLAHAEAVQLFKARYNMHGDSKIGMAFDVMGYEPYQDSFLDDQARERSIDYNMGWFLEPVVRGDYPFSMRSLIGDRLPMFTKEEQEKLASSCDIMGLNYYTSRFSKHVDMSPDFTPTLNTDDAYASSETTGSDGNDIGPITGTYWIYMYPKGLTDLLLIMKEKYGNPPVFITENGIADVEGDESMPDPLDDWKRLDYLQRHISAVKDAIDQGADVRGHFTWGLIDNFEWSLGYSSRFGLVYIDKNDGNKRKLKKSAKWFSKFNSVPKPLLKTTNNNATMTAASVSV” is “soluble”; for “MLQPPTLTPNANGEEFRGSVSTDRSSASPSNIDEIMEDDVNQKDEDEDLNLVDRVSKLETNFVFIQHQLSSIMNHLHAPQCKCTTCSKVNQPGAEEQKNDTSVLSQLFPNASDQQLKTLLDLSKMNKLPSQVVHKDQQNGSSFLPSANKTSENPKPIELKPLKLGQGYQMANGGGGGKIHTERLSEPARKQSRKVGFPPPVASYYQRKESSNPLVPPTPLSSIPNLITNSNAVSANTSTASPGPSSEGSGDDHLEAPNEVAHMHSSTVPATPTTPGANLFTQSMVDMLKLNAQNAAHSTGSPGFLRGRGRGRPKLIGDELDADLVDYMVSLKNSDPHGGHFTASQALHMARQYILERAPGLLEEHGGHVKLKLTWAMKLVSRIGERQREIELGLPAGTLSNMGRNLTNIPAGGNFMADMMAQNIFSQHMMMVNQQLEGGSPPASSSSTATTSTATKTVKQESKNGHQNEENLNVKQEASTMPEIINIKELNLPFLNNFLAELNDNNSGLIDGEIGAAGPSMAALFAPNA” it is “not soluble”; for “IGEFSYHVNGNFSIIKNKVISLGVGDVEQKSGMIGNGSDLFLGYPMNMFYGYKTDGVFLTDDEVKEWHDQSKIAPNSKAGDLRYVDISGDGKVDESDKTYLGSKIPQYTFGLGLGAEYKGFDFNILLQGVAKVKGQLTNYAGYAFFQEGNIQKWQAEETWTNNQSNRYPKYPRLEVMSNAGSNNTLGSDFWILDASYLKVRNIQLGYTLPKRITQKFGSSNLRFYISLDNPFSISGYRKGWDPEINTDGSYYPILSTYTFGLTLKF” it is “not soluble”. With “MGSDKIHHHHHHMSYRLNIENLREFMSETSDSCEHLVFPQKRGIYRAQKEWIASGITLFKCTLRAEDEVVIEQKESAFFGGAFIHVVLEGGVSFETSQPKGSFEYRRGYTTAMEALHPSGITRVARGVSVHSIGIHIHEDFLRSREIEWKKIAKEPRLLPSNPKVEWIAKSLYQGRGGAQSDADRLRVESQILEILSCELQREETRGGMERVKLSGYDLEALHKARVILEQNLKNPPSLIELSRAIHLNEFKLKFGFKRLFGVAPYEMLFLFRMQRARGLLEEGIFSVGEVAKEVGYAQQSSFSAAFFRHFGVLPKEVAKSWKD” the entry was “not soluble”; with “MAAQIPIVAATSTPAVARNSKKRPASPSHNSSGGGYGASKKKKLSASGFAQGVSIEAMNESKMASSELSSGPVEKAAKPLPFKDPNFVHSGHGGAVAGKKNRTWKNLKQILAAERALPWQLNDPNYFSIDAPPSFKPAKKYSDISGLLANYTDPQSKLRFSTVEEFSYIRRLPSDVVTGYLALRKATSIVP”, “not soluble”.
